From patent publication US20090286858A1, “ASSAYS FOR MODULATORS OF ASPARAGINYL HYDROXYLASE” (ISIS INNOVATION LIMITED, priority 2002, published 2009)
Where two headings read alike, the source gives them in different places. Where no end group is shown, it is not given here.

Columns and labels:
Format in all cases: biochemical
FIH [1] = molecular target: T1, FIH (Homo sapiens, UniProt Q9NWT6); assay: FIH 2-OG decarboxylation (CO2 release) assay with HIF-1α polypeptide substrates; conditions: for % activity relative to 775-826 peptide: same conditions; for % activity relative to 775-826 peptide / CO2 released: polypeptide as FIH substrate; for CO2 released: standard assay conditions
T1 construct: His6 (N, cleaved yes); made in house; host or cells: Escherichia coli BL21(DE3)
Protocol: (§1) FIH assays—Assays for decarboxylation of 2-OG were performed using radiolabelled 2-OG (New England Nuclear) as reported in Epstein et al supra. Incubations contained ascorbate, DTT, catalase, 2-OG, FIH, and substrate in 50 mM Tris/HCl pH7.4, and were carried out at 37° C. typically for 20 minutes. HPLC separations were achieved on a Phenomenex Jupiter C4 (10 cm×4.6 mm) column by using of a linear gradient of CH3CN in 0.1% TFA. For inhibition and metal dependence assays, GST HIF-1α 775-826 was used as substrate at 30 μM, and with iron (II) ammonium sulfate, cobalt (II) chloride, zinc (II) chloride, and N-oxaloylglycine at final concentrations of 0, 2, 10, 40, 80 and 200 μM. Assays under an atmosphere of ^18O2 were performed as reported in McNeill et al, Bioorg Med Chem Lett, 2002 12, 1547-1550.

FIH [2] = molecular target: T1, FIH; assay: GST pulldown assay: capture of 35S-labelled p300 CH1 by HIF-1α CAD after exposure to FIH; conditions: for ability to capture CH1 after pre-incubation with FIH: GST-fused polypeptide, 35S-labelled CH1
Protocol: N-oxaloylglycine was added to 5 mM when required. Glutathione Sepharose beads were added for 40 minutes at 25° C. and then washed with 50 mM Tris/HCl pH 7.4, 0.5% NP40, 150 mM NaCl and 1 mM DTT. […] Binding was performed for 1 hour at 25° C. and the beads were then washed in the same buffer. The bound proteins were eluted in SDS running buffer and analyzed by SDS-PAGE and autoradiography.

FIH [3] = molecular target: T1, FIH; assay: FIH inhibition and metal dependence assays (2-OG decarboxylation, GST HIF-1α 775-826 as substrate)
Protocol: as §1
Further characterization of FIH activity—To explore the mechanism of FIH and its relationship to the characteristics of in vivo HIF activation, in vitro analyses of FIH using the purified recombinant protein were performed.

[4] = in vitro kinetic assays, recombinant FIH, GST HIF-1α 775-826 at 30 μM, read-out: IC50

T1 sequence (Q9NWT6 with tags, fused parts or gaps): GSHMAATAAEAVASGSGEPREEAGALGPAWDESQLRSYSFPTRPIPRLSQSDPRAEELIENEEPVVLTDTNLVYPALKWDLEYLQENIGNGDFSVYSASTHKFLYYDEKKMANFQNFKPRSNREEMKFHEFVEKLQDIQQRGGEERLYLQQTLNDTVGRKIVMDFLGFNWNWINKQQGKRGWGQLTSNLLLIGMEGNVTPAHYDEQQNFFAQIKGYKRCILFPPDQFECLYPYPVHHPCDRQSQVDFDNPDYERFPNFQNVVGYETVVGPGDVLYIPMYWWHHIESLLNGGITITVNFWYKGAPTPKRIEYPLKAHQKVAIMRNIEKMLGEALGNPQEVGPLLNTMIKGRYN

| % activity relative to 775-826 peptide (FIH [1]) | CO2 released (FIH [1]) | Molecule | also measured |
| --- | --- | --- | --- |
| 7% | 0.22 nmol | GST HIF-1α 775-826 N803D: GST HIF-1α 775-826 with Asn-803 mutated to aspartate (PSDLACRLLGQSMDESGLPQLTSYDCEVDAPIQGSRNLLQGEELLRALDQVN; cysteine pairing not given here; also: GST fusion, not in chain; UniProt Q16665 775-826, looked up, variant N803D) | 2-OG turnover relative to the analogous Asn-803 substrate (FIH [1]; GST HIF-1α 775-826 mutant): ≤ 7% |
| <0.01% | <0.001 nmol | GST HIF-1α 775-826 N803A: GST HIF-1α 775-826 with Asn-803 mutated to alanine (PSDLACRLLGQSMDESGLPQLTSYDCEVAAPIQGSRNLLQGEELLRALDQVN; cysteine pairing not given here; also: GST fusion, not in chain) | ability to capture CH1 after pre-incubation with FIH (FIH [2]): unaffected |
| – | – | O=S(=O)([O-])[O-].O=S(=O)([O-])[O-].[Fe+2].[NH4+].[NH4+] [iron (II), iron (II) ammonium sulfate] | effect of exogenous metal on FIH activity (FIH [3]; added to purified FIH/HIF-1α CAD assay): no further increase in activity |
| 67% | 0.81 nmol | GST HIF-1α 577-826: GST tagged fusion of human HIF-1α residues 577-826 | – |
| – | – | [Cl-].[Cl-].[Co+2] [Cobalt (II), cobalt (II) chloride] | IC50 (FIH [3]; [4]): 10 µM |
| – | – | [Cl-].[Cl-].[Zn+2] [zinc (II), zinc (II) chloride] | IC50 (FIH [3]; [4]): 10 µM |
| – | – | 2-oxoglutarate [2-OG, reference compound] | Km (FIH [1]; preliminary kinetic parameter, with free HIF-1α 775-826 peptide, 2-OG turnover assay, read-out: Km(2-OG)): 10 µM |
| 96% | 2.7 nmol | GST HIF-1α 775-826: N-terminal glutathione S-transferase tagged fusion of human HIF-1α residues 775-826 (CAD) | ability to capture CH1 after pre-incubation with FIH (FIH [2]): strikingly reduced |
| <0.01% | <0.001 nmol | GST HIF-1α 775-826 N803E: GST HIF-1α 775-826 with Asn-803 mutated to glutamate (PSDLACRLLGQSMDESGLPQLTSYDCEVEAPIQGSRNLLQGEELLRALDQVN; cysteine pairing not given here; also: GST fusion, not in chain; UniProt Q16665 775-826, looked up, variant N803E) | – |
| <0.01% | <0.001 nmol | GST HIF-1α 775-826 N803Q: GST HIF-1α 775-826 with Asn-803 mutated to glutamine (PSDLACRLLGQSMDESGLPQLTSYDCEVQAPIQGSRNLLQGEELLRALDQVN; cysteine pairing not given here; also: GST fusion, not in chain; UniProt Q16665 775-826, looked up, variant N803Q) | – |
| – | – | O=C(O)CNC(=O)C(=O)O [N-oxaloylglycine, reference compound] | IC50 (FIH [3]): 25 µM; inhibition of FIH effect on CH1 capture by HIF-1α CAD (FIH [2]; N-oxaloylglycine 5 mM in FIH/HIF-1α CAD reaction step): inhibited the effect of FIH |
| 100% | 2.8 nmol | HIF-1α 775-826: free polypeptide encompassing the human HIF-1α CAD (residues 775-826), GST tag removed | Vmax (FIH [1]; preliminary kinetic parameter, 2-OG turnover assay): 0.3 µmol/min/mg; Km (FIH [1]; preliminary kinetic parameter, 2-OG turnover assay, read-out: Km(peptide)): 10 µM |
| 1.8% | 0.05 nmol | GST HIF-1α 530-652: GST tagged fusion of human HIF-1α residues 530-652 (protein, left off: a dimerising Fc or GST) EFKLELVEKLFAEDTEAKNPFSTQDTDLDLEMLAPYIPMDDDFQLRSFDQLSPLESSSASPESASPQSTVTVFQQTQIQEPTANATTTTATTDELKTVTKDRMEDIKILIASPSPTHIHKETT | – |
| <0.01% | <0.001 nmol | His6-HIF-1α 344-503: His6-tagged section of HIF-1α, residues 344-503 (protein, left off: small tags and cut ends) GIIQHDLIFSLQQTECVLKPVESSDMKMTQLFTKVESEDTSSLFDKLKKEPDALTLLAPAAGDTIISLDFGSNDTETDDQQLEEVPLYNDVMLPSPNEKLQNINLAMSPLPTAETPKPLRSSADPALNQEVALKLEPNPESLELSFTMPQIQDQTPSPSD | – |
| <0.01% | <0.001 nmol | His6-HIF-1α 530-698: His6-tagged section of HIF-1α, residues 530-698 (protein, left off: small tags and cut ends) EFKLELVEKLFAEDTEAKNPFSTQDTDLDLEMLAPYIPMDDDFQLRSFDQLSPLESSSASPESASPQSTVTVFQQTQIQEPTANATTTTATTDELKTVTKDRMEDIKILIASPSPTHIHKETTSATSSPYRDTQSRTASPNRAGKGVIEQTEKSHPRSPNVLSVALSQR | – |
